Patent US7053179 (WHITEHEAD INSTITUTE FOR BIOMEDICAL RESEARCH, dated 2006)

Molecular target: gp160 (precursor protein to gp120/gp41) expressed on CHO cells (HIV (strain ))
Experiment: cell-based or functional assay

With GGHTTWMEWDREINNYTSLIHSLIEESQNQQEKNEQELLGGHHHHHH [His-tagged C-peptide C37-H6] the “IC50 in the cell-cell fusion assay” value was about 1 nM.
